Binding result, EC50 and Kd data for 1 molecule are collected here from patent publication US11008402 (dated 2021).

One test deals with T1, HER3 359-643-Fc (human).
T1 chain: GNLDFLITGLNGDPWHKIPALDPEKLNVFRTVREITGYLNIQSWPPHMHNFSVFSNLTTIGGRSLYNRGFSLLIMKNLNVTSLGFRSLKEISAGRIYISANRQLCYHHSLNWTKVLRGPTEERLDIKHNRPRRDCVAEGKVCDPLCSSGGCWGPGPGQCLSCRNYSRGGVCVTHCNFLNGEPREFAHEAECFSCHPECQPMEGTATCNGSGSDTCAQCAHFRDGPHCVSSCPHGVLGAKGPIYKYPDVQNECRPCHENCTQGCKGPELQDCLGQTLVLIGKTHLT
The experiment in a line: ELISA. Background: In an ELISA, binding on a coated surface is turned into a signal by an enzyme label.

The target in test [1] is HER3-Fc ECD (human). In words: ELISA.
Test [2] deals with HER3-His ECD (human). The experiment in a line: ELISA.
The target in the next test is T2, HER3 329-550-Fc (human).
T2 chain: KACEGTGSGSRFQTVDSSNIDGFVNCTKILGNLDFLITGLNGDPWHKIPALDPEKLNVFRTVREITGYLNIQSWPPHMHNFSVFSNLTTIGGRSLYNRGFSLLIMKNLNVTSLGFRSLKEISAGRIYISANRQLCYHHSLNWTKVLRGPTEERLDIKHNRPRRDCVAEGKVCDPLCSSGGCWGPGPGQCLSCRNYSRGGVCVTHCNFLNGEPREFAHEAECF
The experiment in a line: ELISA.

For a further test, the target named is HER3 20-531-Fc (human). The experiment in a line: ELISA.
Test [3] has as its target HER3-His ECD (human). The experiment in a line: ELISA. The source holds these as a separate data set.
The target of test [4] is HER3-His ECD (human). In words: ELISA. This is another data set of the same source.
The target of the next test is T3, HER3 458-643-Fc (human).
T3 chain: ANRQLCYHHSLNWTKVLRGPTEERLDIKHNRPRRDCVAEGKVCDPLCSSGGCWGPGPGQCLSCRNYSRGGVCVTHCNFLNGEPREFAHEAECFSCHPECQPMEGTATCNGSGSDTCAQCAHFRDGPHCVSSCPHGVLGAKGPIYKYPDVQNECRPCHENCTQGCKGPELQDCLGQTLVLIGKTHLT
The experiment in a line: ELISA.

The target in a further test is T4, HER3 359-587-Fc (human).
T4 chain: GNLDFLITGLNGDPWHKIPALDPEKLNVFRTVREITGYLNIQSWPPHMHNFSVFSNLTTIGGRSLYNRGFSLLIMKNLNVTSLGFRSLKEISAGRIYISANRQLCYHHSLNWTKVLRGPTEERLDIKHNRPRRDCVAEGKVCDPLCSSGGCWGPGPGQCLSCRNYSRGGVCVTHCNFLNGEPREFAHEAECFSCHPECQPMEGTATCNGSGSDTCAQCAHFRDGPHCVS
In words: ELISA.

The next test deals with T5, HER3 DIV-Fc (human).
T5 chain: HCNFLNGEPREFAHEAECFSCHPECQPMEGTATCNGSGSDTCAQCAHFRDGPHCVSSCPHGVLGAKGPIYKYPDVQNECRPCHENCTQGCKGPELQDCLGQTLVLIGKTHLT
The experiment in a line: ELISA.

The target of a further test is T6, HER3 20-358-Fc (human).
T6 chain: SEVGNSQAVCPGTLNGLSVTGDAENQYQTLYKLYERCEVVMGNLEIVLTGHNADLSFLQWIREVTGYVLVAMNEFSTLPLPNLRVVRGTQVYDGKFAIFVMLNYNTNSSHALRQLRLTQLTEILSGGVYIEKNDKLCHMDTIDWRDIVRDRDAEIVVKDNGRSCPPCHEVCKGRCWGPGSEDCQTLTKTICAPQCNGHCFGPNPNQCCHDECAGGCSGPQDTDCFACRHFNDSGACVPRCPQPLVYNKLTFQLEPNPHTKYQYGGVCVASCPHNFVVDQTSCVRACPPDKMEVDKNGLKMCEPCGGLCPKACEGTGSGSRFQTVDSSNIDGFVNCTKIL
The experiment in a line: ELISA.

For another test, the target named is HER3 20-550-Fc (human). The experiment in a line: ELISA.
The target of the next test is T7, HER3 395-643-Fc (human).
T7 chain: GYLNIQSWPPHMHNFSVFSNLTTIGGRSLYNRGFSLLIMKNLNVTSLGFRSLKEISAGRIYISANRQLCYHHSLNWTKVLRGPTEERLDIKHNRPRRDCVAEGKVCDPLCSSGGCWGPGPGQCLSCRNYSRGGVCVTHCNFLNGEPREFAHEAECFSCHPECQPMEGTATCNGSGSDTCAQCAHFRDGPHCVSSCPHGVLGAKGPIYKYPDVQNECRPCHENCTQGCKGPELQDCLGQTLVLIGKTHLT
The experiment in a line: ELISA.

The target of test [5] is HER3 (cell surface) (human). In words: FACS, FaDu.
Test [6] deals with HER3 (cell surface) (human). The experiment in a line: FACS, FaDu. This is another data set of the same source.
The target in test [7] is HER3 (cell surface) (human). The experiment in a line: FACS, FaDu. This is another data set of the same source. (In general: Flow cytometry measures light scatter and fluorescence of single cells or particles in a stream.)
Test [8] deals with HER3 (cell surface) (human). The experiment in a line: FACS, MCF-7.
In test [9] the target is HER3 (cell surface) (human). The experiment in a line: FACS, SKBR-3.
In test [10] the target is HER3-His ECD (human). The experiment in a line: other, QCM Attana 25C.
Test [11] deals with HER3-Fc ECD (human). The experiment in a line: other, QCM Attana bivalent.

Values joined by “and” are separate entries in the source; they are usually repeats but may differ in a detail not shown here. Equal entries are not always repeated. Where two headings read alike, the source gives them in different places.

B1: IgG 3-43 (antibody, V domains shown)
VH: QVQLQQSGPGLVKPSQTLSLTCAISGDSVSSNRAAWNWIRQSPSRGLEWLGRTYYRSKWYNDYAQSLKSRITINPDTPKNQFSLQLNSVTPEDTAVYYCARDGQLGLDALDIWGQGTMVTVSS
VL: QAGLTQPPAVSVAPGQTASITCGRDNIGSRSVHWYQQKPGQAPVLVVYDDSDRPAGIPERFSGSNYENTATLTISRVEAGDEADYYCQVWGITSDHVVFGGGTKLTVLG
Broadly, the EC50 is the concentration giving half of the maximal effect. Turning to B1, the binding result with HER3 359-643-Fc, with HER3 329-550-Fc, with HER3 20-531-Fc, in the test with HER3 458-643-Fc, in the test with HER3 359-587-Fc and with HER3 DIV-Fc was “no binding” throughout. The binding result with HER3 20-358-Fc, with HER3 20-550-Fc and in the test with HER3 395-643-Fc was “no binding” in each case. The concentration for a half-maximal effect (EC50) with HER3-Fc ECD [1] was 0.27 nM and 0.4 nM; in the test with HER3-His ECD [2] it was 0.33 nM; in the test with HER3-His ECD [3], 0.33 nM and 0.54 nM; in the test with HER3-His ECD [4], 0.23 nM; with HER3 (cell surface) [5] it was 0.3 nM; with HER3 (cell surface) [6] it was 0.006 nM. For the same molecule, the concentration for a half-maximal effect (EC50) was 0.003 nM with HER3 (cell surface) [7], 0.021 nM in the test with HER3 (cell surface) [8] and 0.022 nM with HER3 (cell surface) [9]. Moreover, the Kd in the test with HER3-His ECD [10] was 11.2 nM; in the test with HER3-Fc ECD [11] it was 0.22 nM.
